As a reminder, the Kd is the concentration at which binding is half-saturated. Low values mean higher affinity, high ones lower affinity.

This is an account of results in patent US11965030 (Sanofi, dated 2024).

The chains are these.
T1: GITR (UniProt Q9Y5U5 26-161, limits assumed)
T1 construct: construct not described; also called Glucocorticoid-Induce TNFR-Related Protein (GITR)
T1 sequence (looked up): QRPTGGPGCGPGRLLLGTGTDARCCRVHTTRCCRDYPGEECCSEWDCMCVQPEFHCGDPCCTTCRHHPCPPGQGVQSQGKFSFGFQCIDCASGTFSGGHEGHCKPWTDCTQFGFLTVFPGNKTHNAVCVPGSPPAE

T2: OX40 (UniProt P43489 29-216)
T2 construct: construct not described
T2 sequence (looked up): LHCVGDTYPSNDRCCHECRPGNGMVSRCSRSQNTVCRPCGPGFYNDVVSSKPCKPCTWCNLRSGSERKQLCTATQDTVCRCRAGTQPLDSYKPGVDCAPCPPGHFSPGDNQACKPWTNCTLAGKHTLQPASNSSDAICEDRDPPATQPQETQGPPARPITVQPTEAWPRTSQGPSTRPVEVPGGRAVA

B1: PD-L1 (Q38E-Q39K)-(CH1: L143Q, S188V; CK: V133T, S176V) × OX40 (Q38K-Q39E)-(CH1: T192E; CK: N137K, S114A) (open) (bispecific antibody)
light 1: not shown
heavy: not shown
light 2: DIQMTQSPSSVSASVGDRVTITCRASQGIYSWLAWYQKKPGKAPNLLIYTASTLQSGVPSRFSGSGSGTDFTLTISSLQPEDFATYYCQQANIFPLTFGGGTKVEIKRTVAAPAVFIFPPSDEQLKSGTASVVCLLKNFYPREAKVQWKVDNALQSGNSQESVTEQDSKDSTYSLSSTLTLSKADYEKHKVYACEVTHQGLSSPVTKSFNRGEC
notes: Tandem Fab; also called T18
B2: CD40 (Q38E-Q39K)-(CH1: L143Q, S188V; CK: V133T, S176V) × PD-L1 (Q38K-Q39E)-(CH1: T192E; CK: N137K, S114A) (closed) (bispecific antibody)
light 1: B1 light 2
heavy: not shown
light 2: not shown
notes: Tandem Fab; Same printed name as T14; also called T22
B3: CD40 (Q38E-Q39K)-(CH1: L143Q, S188V; CK: V133T, S176V) × PD-L1 (Q38K-Q39E)-(CH1: T192E; CK: N137K, S114A) (closed) (bispecific antibody)
light 1: not shown
heavy: not shown
light 2: B1 light 2
notes: Tandem Fab; also called T14
B4: CD40 (Q38E-Q39K)-(CH1: L143Q, S188V; CK: V133T, S176V) × PD-L1 (Q38K-Q39E)-(CH1: T192E; CK: N137K, S114A) (open) (bispecific antibody)
light 1: B1 light 2
heavy: not shown
light 2: not shown
notes: Tandem Fab; also called T26
B5: GITR (Q38K-Q39E)-(CH1: T192E; CK: N137K, S114A) × OX40 (Q38E-Q39K)-(CH1: L143Q, S188V; CK: V133T, S176V) (closed) (bispecific antibody)
light 1: EIVMTQSPATLSVSPGERATLSCKASQNVGTNVAWYQKKPGQAPRLLIYSASYRYSGIPARFSGSGSGTEFTLTISSLQSEDFAVYYCQQYNTDPLTFGGGTKVEIKRTVAAPAVFIFPPSDEQLKSGTASVVCLLKNFYPREAKVQWKVDNALQSGNSQESVTEQDSKDSTYSLSSTLTLSKADYEKHKVYACEVTHQGLSSPVTKSFNRGEC
heavy: not shown
light 2: not shown
notes: Tandem Fab; also called T3
B6: OX40 (CH1: L143Q, S188V; CK: V133T, S176V) × GITR (CH1: T192E; CK: N137K, S114A) (closed) (bispecific antibody)
light 1: not shown
heavy: not shown
light 2: B5 light 1 with K38Q
notes: Tandem Fab; also called T4
B7: GITR (CH1: T192E; CK: N137K, S114A) × OX40 (CH1: L143Q, S188V; CK: V133T, S176V) (open) (bispecific antibody)
light 1: B5 light 1 with K38Q
heavy: not shown
light 2: not shown
notes: Tandem Fab; LC-2 as printed is the light chain that elsewhere goes with PD1 (EIVLTQ...SSNWPRT), not the OX40 light chain; also called T6
B8: OX40 (CH1: L143Q, S188V; CK: V133T, S176V) × GITR (CH1: T192E; CK: N137K, S114A) (open) (bispecific antibody)
light 1: not shown
heavy: not shown
light 2: B5 light 1 with K38Q
notes: Tandem Fab; also called T8
B9: GITR (Q38K-Q39E)-(CH1: T192E; CK: N137K, S114A) × OX40 (Q38E-Q39K)-(CH1: L143Q, S188V; CK: V133T, S176V) (open) (bispecific antibody)
light 1: B5 light 1
heavy: not shown
light 2: not shown
notes: Tandem Fab; also called T7
B10: OX40 (Q38E-Q39K)-(CH1: L143Q, S188V; CK: V133T, S176V) × GITR (Q38K-Q39E)-(CH1: T192E; CK: N137K, S114A) (open) (bispecific antibody)
light 1: not shown
heavy: not shown
light 2: B5 light 1
notes: Tandem Fab; also called T9
B11: OX40 (Q38E-Q39K)-(CH1: L143Q, S188V; CK: V133T, S176V) × GITR (Q38K-Q39E)-CH1: T192E; CK: N137K, S114A) closed) (bispecific antibody)
light 1: not shown
heavy: not shown
light 2: B5 light 1
notes: Tandem Fab; also called T5
B12: CD40 (CH1: L143Q, S188V; CK: V133T, S176V) × PD-L1 (CH1: T192E; CK: N137K, S114A) (closed) (bispecific antibody)
light 1: B1 light 2 with K38Q
heavy: not shown
light 2: not shown
notes: Tandem Fab; also called T13
B13: CD40 (CH1: L143Q, S188V; CK: V133T, S176V) × PD-L1 (CH1: T192E; CK: N137K, S114A) (open) (bispecific antibody)
light 1: B1 light 2 with K38Q
heavy: not shown
light 2: not shown
notes: Tandem Fab; also called T17
B14: PD-L1 (Q38K-Q39E)-(CH1: T192E; CK: N137K, S114A) × CD40 (Q38E-Q39K)-(CH1: L143Q, S188V; CK: V133T, S176V) (open) (bispecific antibody)
light 1: not shown
heavy: not shown
light 2: B1 light 2 with K38Q
notes: Tandem Fab; also called T16
B15: anti-CD40 × anti-PD-L1 Y-shaped antibody Y30 (bispecific antibody)
light 1: B1 light 2 with K38Q, A114S, K137N
heavy 1: not shown
heavy 2: not shown
light 2: not shown
notes: CD40 arm wild type (knob); PD-L1 arm S114A,E123K,N137K / T192E,K221E (hole)

Where a chain is given by its changes, count along the chain named. Numbers in names are those of the source.

In one assay the target is T3, PD-L1 (UniProt Q9NZQ7 19-239, limits assumed).
T3 construct: construct not described; also called Programmed Cell Death Ligand 1 (PD-L1)
T3 sequence (Q9NZQ7 19-239 limits assumed): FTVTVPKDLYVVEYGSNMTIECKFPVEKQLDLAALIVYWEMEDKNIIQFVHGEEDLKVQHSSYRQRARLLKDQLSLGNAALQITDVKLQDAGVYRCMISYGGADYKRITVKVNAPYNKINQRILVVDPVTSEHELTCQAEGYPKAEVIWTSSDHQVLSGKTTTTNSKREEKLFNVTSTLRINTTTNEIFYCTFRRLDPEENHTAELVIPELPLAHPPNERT
Briefly: SPR (Biacore 3000), column 'Affinity'.
For B1, the Kd is 0.023 nM.
For B2, the affinity, expressed as Kd, was 0.058 nM. This Kd lies about 2.5-fold higher than the previous one.
B3 had a dissociation constant (Kd) of 0.019 nM.
The same measure, in the same setting: to B4 belongs 0.051 nM.

The target of another assay is T1, GITR. Briefly: SPR (Biacore 3000), column 'Affinity'. Background: In SPR one partner is held on a chip, and binding of the other changes the refractive index at the surface.
Molecule B5 registered a Kd of 0.3 nM. In other words, the sub-nanomolar range.
As to B6, binding was characterised by a dissociation constant (Kd) of 0.9 nM.
Regarding B7, the affinity, expressed as Kd, was 0.5 nM.
B8: the Kd stood at 0.6 nM.
As to B9, the Kd came out at 0.7 nM. This Kd and that of the molecule before are within 1.5-fold of each other.
B10: binding was put at a Kd of 0.6 nM.
In turn, B11 returned a Kd of 0.7 nM.

For the next assay, the target named is T4, CD40 (UniProt P25942 21-193, limits assumed).
T4 construct: construct not described
T4 sequence (P25942 21-193 limits assumed): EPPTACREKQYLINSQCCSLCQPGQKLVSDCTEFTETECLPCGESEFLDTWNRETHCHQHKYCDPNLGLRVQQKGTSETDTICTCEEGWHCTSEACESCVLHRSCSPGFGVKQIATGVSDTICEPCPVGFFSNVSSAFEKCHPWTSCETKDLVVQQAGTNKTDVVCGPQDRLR
Briefly: SPR (Biacore 3000), column 'Affinity'.
Molecule B12 registered a Kd of 2.4 nM. In other words, the single-digit nanomolar range.
Molecule B1 showed a dissociation constant (Kd) of 2.1 nM.
B2 yielded a Kd of 1.7 nM.
B13 gave a Kd of 3.1 nM.
Turning to B3, binding was put at a Kd of 2.4 nM.
Turning to B4, the Kd turned out to be 1.6 nM.
In turn, B14 had a Kd of 4 nM. Against the preceding molecule, the Kd is about 2.5-fold higher.

A further assay addresses T2, OX40. Briefly: SPR (Biacore 3000), column 'Affinity'.
Consider B5, for which the Kd stood at 0.3 nM.
Same read-out and setting: to B6 belongs 0.2 nM.
For B7, the binding result is recorded as “no binding”.
Molecule B8 came in with a Kd of 0.3 nM.
B9 showed a Kd of 1 nM.
Turning to B10, the Kd amounted to 0.2 nM. This Kd is about 5-fold lower than that of the molecule before.
Molecule B11 had a dissociation constant Kd of 0.2 nM.

Another assay has as its target T4, CD40. Briefly: SPR.
With B15, the binding result is “binds”.
